Test: yeast display, Sf9 membrane polyspecificity reagent, FACS + sequencing; frameworks hold sequencing errors
Outline: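 In a synthetic yeast display library (Saccharomyces cerevisiae BJ5465), nanobody expression was induced with galactose for 36–48 hours. FACS gates were set low and high (top ~1%) using anti-HA fluorescence for expression and streptavidin fluorescence for binding of the Sf9 membrane reagent. Each polyreactivity label is drawn from the gate of origin.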

Row | Sequence | polyreactivity (PSR sort gate)
1 | QVQLVETGGGLVQAGGSLRLSCAASGSIFVPYGMGWYRQAPGKERELVAAIRKRGSSTYYADSVKWRFTNSRDNAKNTVYLQMNSLKPEDTAVYYCASTWVSVWYRYDYWGQGTQVTVSS | high polyreactivity
2 | QVQLVETGGGLVQAGGSLRLSCAASGSIQWNAMGWYRQAPGKERELVAVINTGGSTYADSVKGRFTISRDNAKNTVYLQMNMLKPEDTAVFYCAARVPFTLLKGKQYGYWGQGTQVTVSS | low polyreactivity
3 | QVQLVETGGGLVQAGGSLRLSCAASGSNFLPNAMGWYRQAPGKERELVARISYSGGNTYYADSVKGRFTISRDNAKNTVYLQMNSLKPEDTAVYYCATSHYYNDYTGRRYYYWGQGTQVTVSS | high polyreactivity
4 | QVQLVETGGGLVQAGGSLRLSCAASGSTFGINAMGWYRQAPGKERELVAAITASGCRTYYADSVKGRFTISRDNAKNTVYLQMNSLKPEDNAVYYCAARGTYYRRYDYWGQGTQVTVSS | low polyreactivity
5 | QVQLVETGGGLVQAGGSLRLSCAASGSTFQPYAMGWYRQAPGKERELVAAIRSIAGSTYYADSVKGRFTISRDNAKITVYLQMNILKPDDTAVYYCAADWWRVEMDYWGQGTQVTVSS | low polyreactivity
6 | QVQLVETGGGLVQAGGSLRLSCAASGSTFVYNAMGWYRQAPGKERELVASITRSGSSTYYADSVKGRFTISRDNAKNTVYLQMNSLKPEDTAVYYCAVRYSVLSNYRYYYWGQGTQVTVSS | low polyreactivity
7 | QVQLVETGGGLVQAGGSLRLSCAASGTIFKKYAMGWYRQAPGKERELVAAITRGTYYADSVKGRFTISRDNAKNTVYLQMNSLIPEDTAVYYFNREYWGRGYYRVRGEYDYWGQGTQVTVSS | low polyreactivity
8 | QVQLVETGGGLVQAGGSLRLSCAATGLNFWLYAMAWYRQAPGKEREFVAVISWSGGTTYYADSVKGLFTISRDYAKNTVYLTMTTLIPEDTAVYFCAAQVCYYTNYREFDYWGQGTQVTVSS | low polyreactivity
9 | QVQLVETGGGLVQAGGSLRLSCAPSGFIFYRNTMGWYRQAPGKERELDATISRRGGSTYYADSVKGRFTISRDNAKNTVYLQMNSLKPEDTAVYYCADGPRFSYYTHRYGYWGEGTQVTVSS | high polyreactivity
10 | QVQLVETGGGLVQAGGSLRLSGAASGRIFWVNAMGWYRQAPGKERELVAVISRGGSTTYADSVKGRFTISRDNAKNTVYLKMNSLKPEDTAVYYCAADAYRHAFLYYGYDYLGQGTQVTVSS | low polyreactivity
11 | QVQLVETGGGLVQAGGTLRLSCADSGFTFHQYTMGWYIPAPGKERELVAAITGTGDTYYADSVKGRFTISRDNAKNTVYLQMNSLKPEDTAVYYCNALYVYRSVANFDYWGQGTQVTVSS | high polyreactivity
12 | QVQLVETGGGLVQAVGSLRLSCAASGYTFLLYAMGWYRQAPGKERELVASISWNVGSTYYADSVKGRFTISRDNAKNTVYLQMNSLKPEDTAVYYCARGYERPRVATFHRFDYWGLGTQVTVSS | low polyreactivity
13 | QVQLVETGGGLVRAGGSLRLSCAASGRPFGRYAMGWYRQGPGKETELVAAITRTGITNYEVSVKGRFTISRDNAKNTVYLHMNSLNPEDTAVYYGAARRWLNCYGTGYGYWGQGTLVTVSS | high polyreactivity
14 | QVQLVETGGGVVHAGGSLRLSCAASGRIFRVDDMGWYRKAPGQERELVATINPTGGSTSYADSVKGRFTNSRDNAKNTVYLQMNSLTTEDTAVYYCAADCWYSVRKNWSRSGSFPFDYWRQGTQVTVSS | high polyreactivity
15 | QVQLVETGGRLVQAGGSLRLSCAASGFTFWTYAMGWYRQAPGKERELVAAISTSGGSTYYADSVKGRFTISRDNAKNTVYLQMNSLKPEDTAVYYCSAYAIGEHFRARYGYWGQGTQVTVSS | high polyreactivity
16 | QVQLVETGGRLVQAGGSLRLSCAASGSTFDIYVIGWSRQAPGKERELVAAISRVGNTSYADSVKGRFTISRDNAKNTVYLQMNSLIPEDTAVYYCAADAPSWYDRQYDYWGQGTQVTVSS | low polyreactivity

Row | Sequence | polyreactivity (PSR sort gate)
17 | QVQLVETGGVLVQAGGSLRLSCAASGRTFVYNAMGWYRHAPGKEREFVAAIDGGTGSTYYADSVKGRFTISRDNAKNTVYLQMNSLKPEDTAVYYCAVETYGGGYPVTYDYWGQGTQVTVSS | low polyreactivity
18 | QVQLVETGRGLVQAGGSLRLSCAASGRIFRGYAMGWYRQAPGKERELVAAINWSGGNTYYADSVKGRFTISRDNAKNTVYLQMNSLKPEDTAVYYCATLGYLGGGYWGQGTQVTVSS | high polyreactivity
19 | QVQLVETGRGLVQAGGSLRLSCAASGRIFYANAMGWYRQAPGKERELVAAISRTGGSTYYADSVKGRFTISRDNAKNTVYLQMNSLKPEDTAVYYCNALSGVYGYDDWGQGTQVTVSS | high polyreactivity
20 | QVQLVETGVGLVQAGGSLRVICAASGLTFYLYAMGWNRQAPGKERELAAAISSTGITNFADSVKGRFTISRDNAKNTVYLQMTSLKPEDTAVYYCNADYHPFFFEFNYWGKGTQVTVSS | high polyreactivity
21 | QVQLVETRGGLVQAGVSLRLICSASGSTFAPKSIGLYRQAPGKERELVAGLSWGDSTYYADSVKGRFTISRDNAKNTVYLQMISLKPEDTAVYFCAVRWVWNPCGIQGDWAVDYDYWGQGTQVTVSS | low polyreactivity
22 | QVQLVEYQGGLVQAGGSLRLSSAASGIIFDQYAMGWYRQAPGKEREVVAAITYSGGCTYYADSVNGRFTISRDNEKNTVYLQMNSLKPEDTAVYYCADLFGYSLYDAQYDYWGQGTQVTVSS | low polyreactivity
23 | QVQLVGSGGALVQAGGSLRLSCAASGRTFSYYAMGWYRQAPGKERELVASIRSSRTSTYYADSVKGRFTISRDNAKNTVYLQMNSLKPEDTAVYSCAKRYFTWRSTYNYWGQGTKVTVSS | high polyreactivity
24 | QVQLVGSGGGLVQAGGSLRLSCAASGRIFRYNAMGWYRQAPGKEREFVATISWRGGNTYYADSVKGRFTISRDNAKNTVYLQMNSLKPEDTAVYYCATRRLYSKSWYYYWGQGTQVTVSS | high polyreactivity
25 | QVQLVGSGGGLVQAGSSLRLTCAASGLIFTYYAMGWYRQAPGKEREFVAVIDSSGDSTNYADSVKGRFTISRDNAKNTVYLQMNSLKPEDTAVYYCNAYNWSYIYFPFVQEYRTYDYWGQGTQVTVSS | low polyreactivity
26 | QVQLVKSGGGLVQAGGSLRLSCAASGFTFFVYAMGWYRPAPGKERELVAAITSSGGSTYYADSVKGRFTISRDNAKNTVYLQMNSLKPEDTAVYYCAADRYSYLGYPYEYEYWGQGTQGTVSS | low polyreactivity
27 | QVQLVKSGGGLVQAGGSLRLSCAASGFTIYYYAMGWYRQAPGKEMELVASITSGGSTYYADSVKGRFTISRDNAKNTVYLQMNSLKPEDTAVYYCAKTRFHSKEGDYWGQGTQVTVSS | low polyreactivity
28 | QVQLVKSGGGLVQAGGSLRLSCAASGIIFWLYDMGWYRQAPGKERELVAVITWSGDSTYADSVKGRFTISRDNAKNTVYLQMNSLKPEDTAVYYCAAREYYRKPYDHWGQGTQVTVSS | high polyreactivity
29 | QVQLVKSGGGLVQAGGSLRLSCAASGSTFYNAMGWYRQAPGKEREWVAAISIGGSTYYADSVKGRFTISRYNAKNTVYLQMNSLKPEDTAVYYCNADLYYWLRYYDRNDYWGQGTQVTVSS | low polyreactivity
30 | QVQLVKSGGGLVQAGGSLRLSCAASGTFRLYAMGWYRQAPGKERDFVAAITYGGVGTYYADSVKGRFTISRDNAKHTVYLQMNSLNPEDTAVSYCAAELYLTDTDVEYSYWGQGTQVTVSS | low polyreactivity
31 | QVQLVQSAGGLVQAGGSLRLSCAASGFTFVKYAMGWYRQAPGKERELLAVISRRGGSTYYADSVKGRFTISRDNAKNTVYLHMNSLKPEDTAVYYCAAVYYLYSAWRYDYWGQGTQVTVSS | high polyreactivity

— the nanobody polyreactivity screen of Harvey et al. (2022)
